The Kd is the constant that tells how readily two partners part at equilibrium. Low values mean tighter binding, high ones weaker binding. Usually IC50 stands for the midpoint of a concentration-inhibition curve. Read a high IC50 as a need for much substance.

One experiment addresses HLA-A*11:01. Put plainly: IEDB peptide-MHC binding, purified MHC/direct/fluorescence; filed as Kd, often an IC50 or EC50 that approximates it; ≥ and ≤ were set here for values at or beyond the usual limits of such assays.
In experiment [1] the target is HLA-A*03:01. The experiment is described as above.
In experiment [2] the target is HLA-A*31:01. Put plainly: IEDB peptide-MHC binding, purified MHC/competitive/fluorescence; filed as Kd, often an IC50 or EC50 that approximates it; ≥ and ≤ were set here for values at or beyond the usual limits of such assays.
Experiment [3] concerns the target HLA-B*07:02. The description is as above.
Experiment [4] deals with HLA-B*08:01. Put plainly: IEDB peptide-MHC binding, purified MHC/competitive/fluorescence; ≥ and ≤ were set here for values at or beyond the usual limits of such assays.
In the next experiment the target is HLA-A*24:02. Described as above. As to conditions: source organism: Zaire ebolavirus.
The target of the next experiment is HLA-A*69:01. Put plainly: IEDB peptide-MHC binding, purified MHC/direct/fluorescence; filed as Kd, often an IC50 or EC50 that approximates it; ≥ and ≤ were set here for values at or beyond the usual limits of such assays.
The next experiment addresses HLA-C*12:03. Described as above.
The next experiment has as its target HLA-A*02:01. The description is as above.
The target of a further experiment is HLA-A*02:11. The experiment is described as above. The following applies: source organism: Orthohantavirus sangassouense.
The next experiment has as its target HLA-A*02:19. The description is as above. The following applies: source organism: Orthohantavirus sangassouense.
Another experiment concerns the target HLA-A*02:12. Described as above. The following applies: source organism: Orthohantavirus sangassouense.
For the next experiment, the target named is HLA-B*35:01. The experiment is described as above. The following applies: source organism: Giardia lamblia ATCC 50803.
Another experiment concerns the target HLA-B*40:01. The description is as above. The following applies: source organism: Giardia lamblia ATCC 50803.
In another experiment the target is HLA-B*44:02. The description is as above. As to conditions: source organism: Giardia lamblia ATCC 50803.
Experiment [5] deals with HLA-B*57:01. Described as above. As to conditions: source organism: Giardia lamblia ATCC 50803.
In experiment [6] the target is HLA-B*08:01. Described as above. As to conditions: source organism: Giardia lamblia ATCC 50803.
Experiment [7] concerns the target HLA-B*07:02. Described as above. As to conditions: source organism: Giardia lamblia ATCC 50803.
A further experiment addresses HLA-B*58:01. The description is as above. The following applies: source organism: Giardia lamblia ATCC 50803.
The target in experiment [8] is HLA-A*01:01. The experiment is described as above. As to conditions: source organism: Giardia lamblia ATCC 50803.
The target in experiment [9] is HLA-B*15:01. Described as above. The following applies: source organism: Giardia lamblia ATCC 50803.
In experiment [10] the target is HLA-B*15:17. Described as above. As to conditions: source organism: Giardia lamblia ATCC 50803.
The target in another experiment is HLA-B*27:05. The experiment is described as above. The following applies: source organism: Giardia lamblia ATCC 50803.
Experiment [11] concerns the target HLA-A*26:01. The description is as above. The following applies: source organism: Giardia lamblia ATCC 50803.
In experiment [12] the target is HLA-A*31:01. Described as above. The following applies: source organism: Giardia lamblia ATCC 50803.
The target of experiment [13] is HLA-A*01:01. Put plainly: IEDB peptide-MHC binding, purified MHC/competitive/fluorescence; filed as Kd, often an IC50 or EC50 that approximates it; ≥ and ≤ were set here for values at or beyond the usual limits of such assays.
Another experiment has as its target HLA-B*83:01. The description is as above. As to conditions: source organism: Homo sapiens.
For another experiment, the target named is HLA-A*29:02. The description is as above. The following applies: source organism: Homo sapiens.
The next experiment concerns the target HLA-B*15:42. The description is as above. As to conditions: source organism: Homo sapiens.
Another experiment concerns the target HLA-B*45:06. Described as above. The following applies: source organism: Homo sapiens.
In experiment [14] the target is HLA-A*03:01. The experiment is described as above.
The target in experiment [15] is HLA-B*57:01. The experiment is described as above. The following applies: source organism: Giardia lamblia ATCC 50803.
Experiment [16] addresses HLA-B*15:01. The experiment is described as above.
Experiment [17] deals with HLA-B*15:17. Described as above. As to conditions: source organism: Giardia lamblia ATCC 50803.
A further experiment addresses HLA-B*51:01. The description is as above.
A further experiment addresses HLA-B*18:01. Described as above. As to conditions: source organism: Giardia lamblia ATCC 50803.
Experiment [18] addresses HLA-A*26:01. Described as above. As to conditions: source organism: Giardia lamblia ATCC 50803.
The target in a further experiment is HLA-B*46:01. Described as above. As to conditions: source organism: Giardia lamblia ATCC 50803.
Another experiment deals with HLA-B*27:03. Described as above. The following applies: source organism: Giardia lamblia ATCC 50803.
Where [19] appears, read: source organism: Francisella tularensis subsp. holarctica LVS.
Setting [20] is: source organism: Orthohantavirus hantanense.
[21] abbreviates: source organism: Mycobacterium tuberculosis.
Setting [22] is: source organism: Giardia lamblia ATCC 50803.
The mark [23] stands for this setting: source organism: Listeria monocytogenes.
The mark [24] stands for this setting: source organism: West Nile virus.
Where [25] appears, read: source organism: Influenza A virus (A/nt/60/1968(H3N2)).
Where [26] appears, read: source organism: Campylobacter jejuni.
Setting [27] is: source organism: Shigella boydii CDC 3083-94.

AIYESNIGY: the Kd with HLA-A*11:01 (setting [19]) is 15.1 nM; in the experiment with HLA-A*03:01 [1] (setting [19]), 8.3 nM; with HLA-A*31:01 [2] (source organism: Francisella tularensis subsp. tularensis FSC198) it was not below 20000 nM.

The sequence APSPYNSRF had a Kd with HLA-B*07:02 [3] (source organism: Influenza A virus) of 7.1 nM.

Turning to ELRTFSILN, the IC50 with HLA-B*08:01 [4] (source organism: Zaire ebolavirus) is not below 302000 nM; with HLA-A*24:02 it was 30100 nM.

For the sequence ERQLAKAII, the IC50 in the experiment with HLA-B*08:01 [4] (source organism: Vaccinia virus Copenhagen) was not below 111000 nM.

Regarding FIYGYLEPV, the Kd is not above 1 nM in the experiment with HLA-A*69:01 (setting [20]); 12 nM with HLA-C*12:03 (source organism: Orthohantavirus); not above 1 nM in the experiment with HLA-A*02:01 (setting [20]); not above 1 nM in the experiment with HLA-A*02:11; 2 nM with HLA-A*02:19; not above 1 nM with HLA-A*02:12.

GDIKASNIV came in with an IC50 with HLA-B*08:01 [4] (source organism: Vaccinia virus WR) not below 298000 nM.

As for GTAPPPLTR, the Kd in the experiment with HLA-A*11:01 (setting [21]) amounted to 20.4 nM; in the experiment with HLA-A*03:01 [1] (setting [21]), 320 nM; with HLA-A*31:01 [2] (source organism: Mycobacterium tuberculosis variant bovis BCG str. Pasteur 1173P2) it was 3.77 nM.

For the sequence HSSVAGGLW, the Kd with HLA-A*69:01 (setting [22]) was not below 20000 nM; with HLA-B*35:01 it was 278 nM; with HLA-B*40:01 it was not below 20000 nM; in the experiment with HLA-B*44:02, not below 20000 nM; in the experiment with HLA-B*57:01 [5] it was 53.5 nM; with HLA-B*08:01 [6] it was not below 20000 nM. Also, the Kd is not below 20000 nM in the experiment with HLA-B*07:02 [7]; 3.74 nM with HLA-B*58:01; 590 nM with HLA-A*01:01 [8]; not below 20000 nM with HLA-B*15:01 [9]; 1.1 nM with HLA-B*15:17 [10]; not below 20000 nM with HLA-A*11:01 (setting [22]). For the same sequence, the Kd with HLA-A*02:01 (setting [22]), in the experiment with HLA-B*27:05, with HLA-A*26:01 [11], with HLA-A*03:01 [1] (setting [22]) and in the experiment with HLA-A*31:01 [12] was not below 20000 nM throughout.

ITDMRNGFN showed a Kd with HLA-A*01:01 [13] (source organism: Escherichia coli O139:H28 str. E24377A) not below 20000 nM.

As to LLAKSVFNSLY, the Kd with HLA-A*01:01 [13] (source organism: Influenza A virus (A/X-31(H3N2))) is 93 nM.

For the sequence LLARFGLEK, the Kd in the experiment with HLA-A*11:01 (setting [23]) came out at 10.3 nM; with HLA-A*03:01 [1] (setting [23]), 14.1 nM; with HLA-A*31:01 [2] (source organism: Listeria monocytogenes J0161), 1400 nM.

LPFQNIHPITI gave a Kd in the experiment with HLA-B*07:02 [3] (source organism: Influenza A virus (A/duck/Bavaria/1/1977(H1N1))) of 57.4 nM.

In the case of MVGVGSLVK, the Kd with HLA-A*11:01 (setting [24]) is 27 nM; with HLA-A*31:01 [2] (setting [24]) it was not below 20000 nM.

As for NPRMFLAM, the equilibrium dissociation constant (Kd) in the experiment with HLA-B*07:02 [3] (source organism: Influenza A virus (A/Fort Monmouth/1/1947-mouse adapted(H1N1))) is 372 nM.

As for STMRRMALR, the Kd in the experiment with HLA-A*01:01 [13] (source organism: Homo sapiens) was not below 20000 nM; in the experiment with HLA-B*83:01 it was not below 5000 nM; with HLA-A*29:02, not below 20000 nM; in the experiment with HLA-B*15:42, not below 5000 nM; with HLA-B*45:06, not below 5000 nM.

Take TIHDRIPHR: the Kd stood at 61.9 nM with HLA-A*03:01 [14] (setting [25]) and 20.4 nM with HLA-A*31:01 [2] (setting [25]).

In the case of TLYYLECKR, the values for the dissociation constant (Kd) with HLA-A*03:01 [1] (setting [26]) and with HLA-A*31:01 [2] (setting [26]) were not below 20000 nM and 54.5 nM, respectively.

With TMNSRYYLV, the Kd with HLA-B*57:01 [15], with HLA-B*15:01 [16] (setting [22]), in the experiment with HLA-B*15:17 [17], in the experiment with HLA-B*51:01 (setting [22]), with HLA-B*18:01 and in the experiment with HLA-A*26:01 [18] was not below 20000 nM throughout. The Kd was not below 20000 nM in the experiment with HLA-A*03:01 [14] (setting [22]), 72.5 nM in the experiment with HLA-A*31:01 [2] (setting [22]), not below 20000 nM with HLA-B*46:01 and not below 20000 nM with HLA-B*27:03.

As for TPAVCGPVI, the results for the Kd in the experiment with HLA-B*07:02 [3] (setting [27]), with HLA-B*15:01 [16] (setting [27]) and with HLA-B*51:01 (setting [27]) were 23.8 nM, not below 20000 nM and 1860 nM, respectively.

As for TVHDRTPYR, the Kd with HLA-A*03:01 [1] (source organism: Influenza A virus (A/SW/MN/3128/00(H1N2))) and with HLA-A*31:01 [2] (source organism: Influenza A virus (A/Waikato/7/2000(H3N2))) was not below 20000 nM in each case.

For the sequence YQFTGIKKY, in the experiment with HLA-C*12:03 (source organism: Homo sapiens), the Kd is not above 1 nM.

In the case of YYFQSGNEI, the Kd with HLA-C*12:03 (source organism: human gammaherpesvirus 4) was not below 20000 nM.

Source of the values: the Immune Epitope Database (IEDB).
